Some targets named below: Elastase; bovine trypsin (bovine, UniProt P00760 24-246); chymotrypsin; MMP8 (human, UniProt P22894 101-467, limits assumed); MMP13 (human, UniProt P45452 104-471, limits assumed); MMP9 (human, UniProt P14780 107-707, limits assumed); MMP3 (human, UniProt P08254 100-477, limits assumed); MMP12 (human, UniProt P39900 106-470, limits assumed).
What all share (assay): cell-based or functional assay
Another experiment deals with T1, ADAMTS4 (human, UniProt O75173 213-685, limits assumed).
T1 sequence (looked up): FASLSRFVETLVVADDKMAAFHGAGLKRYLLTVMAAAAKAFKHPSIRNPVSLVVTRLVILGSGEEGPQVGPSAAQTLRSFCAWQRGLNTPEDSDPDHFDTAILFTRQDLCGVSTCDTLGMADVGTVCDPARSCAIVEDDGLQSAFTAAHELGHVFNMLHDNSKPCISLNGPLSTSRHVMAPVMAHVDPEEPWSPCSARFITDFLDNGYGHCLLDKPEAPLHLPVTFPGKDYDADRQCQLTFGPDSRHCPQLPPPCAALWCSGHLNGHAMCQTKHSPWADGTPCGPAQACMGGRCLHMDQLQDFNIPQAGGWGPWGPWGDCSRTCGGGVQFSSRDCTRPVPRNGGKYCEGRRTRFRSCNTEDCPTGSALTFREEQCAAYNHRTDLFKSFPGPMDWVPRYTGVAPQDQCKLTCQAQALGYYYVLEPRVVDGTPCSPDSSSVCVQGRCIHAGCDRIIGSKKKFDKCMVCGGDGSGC

In a further experiment the target is T2, ADAMTS5 (human, UniProt Q9UNA0 262-622, limits assumed).
T2 sequence (looked up): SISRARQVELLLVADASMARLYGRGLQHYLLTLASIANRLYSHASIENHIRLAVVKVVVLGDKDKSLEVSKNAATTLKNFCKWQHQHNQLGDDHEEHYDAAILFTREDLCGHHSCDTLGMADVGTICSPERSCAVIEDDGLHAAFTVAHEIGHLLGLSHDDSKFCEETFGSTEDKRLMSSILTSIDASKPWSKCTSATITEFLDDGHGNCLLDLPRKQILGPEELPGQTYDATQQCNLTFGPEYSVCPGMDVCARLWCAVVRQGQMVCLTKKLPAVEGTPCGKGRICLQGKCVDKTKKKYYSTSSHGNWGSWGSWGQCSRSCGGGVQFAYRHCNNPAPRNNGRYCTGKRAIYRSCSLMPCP

For another experiment, the target named is T3, MMP1 (human, UniProt P03956 100-469, limits assumed).
T3 sequence (looked up): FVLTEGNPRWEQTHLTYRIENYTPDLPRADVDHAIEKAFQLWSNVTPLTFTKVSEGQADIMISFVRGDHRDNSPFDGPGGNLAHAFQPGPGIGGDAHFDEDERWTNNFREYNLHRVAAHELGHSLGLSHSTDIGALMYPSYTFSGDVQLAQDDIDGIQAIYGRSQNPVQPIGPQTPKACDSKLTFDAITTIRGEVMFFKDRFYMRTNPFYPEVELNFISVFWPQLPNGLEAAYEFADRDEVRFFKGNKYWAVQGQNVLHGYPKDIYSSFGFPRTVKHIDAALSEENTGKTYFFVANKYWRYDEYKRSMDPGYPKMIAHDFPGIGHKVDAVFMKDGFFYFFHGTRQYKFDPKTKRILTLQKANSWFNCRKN

The target of the next experiment is T4, MMP2 (human, UniProt P08253 110-660, limits assumed).
T4 sequence (looked up): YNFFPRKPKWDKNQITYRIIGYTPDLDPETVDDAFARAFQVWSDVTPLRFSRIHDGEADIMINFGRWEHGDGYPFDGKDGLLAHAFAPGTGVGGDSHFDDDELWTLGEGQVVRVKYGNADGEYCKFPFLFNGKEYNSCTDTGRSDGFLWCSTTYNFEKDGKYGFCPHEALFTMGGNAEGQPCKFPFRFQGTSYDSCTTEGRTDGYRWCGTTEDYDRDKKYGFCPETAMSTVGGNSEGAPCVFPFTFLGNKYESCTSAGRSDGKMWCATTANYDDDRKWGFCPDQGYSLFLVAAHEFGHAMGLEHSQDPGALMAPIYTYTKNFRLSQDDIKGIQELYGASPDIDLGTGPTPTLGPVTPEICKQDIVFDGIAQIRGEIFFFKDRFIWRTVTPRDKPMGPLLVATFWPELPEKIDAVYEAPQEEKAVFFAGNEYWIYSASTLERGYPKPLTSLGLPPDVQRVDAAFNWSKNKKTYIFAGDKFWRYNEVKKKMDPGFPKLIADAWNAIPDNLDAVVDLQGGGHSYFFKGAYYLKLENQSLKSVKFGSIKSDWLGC

In another experiment the target is T5, Cathepsin G (UniProt P08311 21-244).
T5 sequence (looked up): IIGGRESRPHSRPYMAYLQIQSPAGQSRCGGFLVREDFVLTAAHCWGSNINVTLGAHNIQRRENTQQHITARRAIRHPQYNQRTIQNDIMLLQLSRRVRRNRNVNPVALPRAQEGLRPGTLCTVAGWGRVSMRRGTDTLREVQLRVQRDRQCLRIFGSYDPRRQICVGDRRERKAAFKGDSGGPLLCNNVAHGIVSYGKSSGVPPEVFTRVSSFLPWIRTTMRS

Sequence of MMP12 (P39900 106-470 limits assumed): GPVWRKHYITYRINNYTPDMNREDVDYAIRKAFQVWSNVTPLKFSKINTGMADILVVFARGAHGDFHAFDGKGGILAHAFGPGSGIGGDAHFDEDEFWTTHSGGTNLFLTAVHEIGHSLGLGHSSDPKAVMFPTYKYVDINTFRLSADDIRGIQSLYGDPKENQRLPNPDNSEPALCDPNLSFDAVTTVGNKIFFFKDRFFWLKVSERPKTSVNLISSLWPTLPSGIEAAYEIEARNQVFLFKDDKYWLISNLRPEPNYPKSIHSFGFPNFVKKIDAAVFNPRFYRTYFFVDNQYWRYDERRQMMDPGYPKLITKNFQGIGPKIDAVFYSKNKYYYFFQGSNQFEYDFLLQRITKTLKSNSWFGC
Sequence of bovine trypsin (P00760 24-246): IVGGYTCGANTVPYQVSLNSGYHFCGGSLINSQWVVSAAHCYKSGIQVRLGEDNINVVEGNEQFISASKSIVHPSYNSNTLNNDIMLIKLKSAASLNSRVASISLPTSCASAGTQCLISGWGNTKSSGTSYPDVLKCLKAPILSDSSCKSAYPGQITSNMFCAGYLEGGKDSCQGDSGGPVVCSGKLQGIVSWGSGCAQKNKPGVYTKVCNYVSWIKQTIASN
Sequence of MMP9 (P14780 107-707 limits assumed): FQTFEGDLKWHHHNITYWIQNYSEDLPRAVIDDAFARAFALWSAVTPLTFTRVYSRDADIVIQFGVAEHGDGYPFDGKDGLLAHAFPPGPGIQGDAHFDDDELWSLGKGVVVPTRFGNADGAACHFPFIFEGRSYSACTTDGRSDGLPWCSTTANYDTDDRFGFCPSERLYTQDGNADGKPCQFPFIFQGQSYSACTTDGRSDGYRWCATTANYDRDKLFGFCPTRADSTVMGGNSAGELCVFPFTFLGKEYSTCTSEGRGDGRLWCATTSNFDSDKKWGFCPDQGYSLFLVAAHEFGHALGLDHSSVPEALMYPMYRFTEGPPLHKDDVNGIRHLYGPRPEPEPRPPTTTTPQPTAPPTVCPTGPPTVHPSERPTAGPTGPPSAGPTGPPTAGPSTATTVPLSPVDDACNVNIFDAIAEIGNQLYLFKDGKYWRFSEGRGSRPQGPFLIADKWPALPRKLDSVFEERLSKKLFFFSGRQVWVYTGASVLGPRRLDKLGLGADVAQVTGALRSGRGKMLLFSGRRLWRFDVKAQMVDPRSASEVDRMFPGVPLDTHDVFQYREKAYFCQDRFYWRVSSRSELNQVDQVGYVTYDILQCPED
Sequence of MMP8 (P22894 101-467 limits assumed): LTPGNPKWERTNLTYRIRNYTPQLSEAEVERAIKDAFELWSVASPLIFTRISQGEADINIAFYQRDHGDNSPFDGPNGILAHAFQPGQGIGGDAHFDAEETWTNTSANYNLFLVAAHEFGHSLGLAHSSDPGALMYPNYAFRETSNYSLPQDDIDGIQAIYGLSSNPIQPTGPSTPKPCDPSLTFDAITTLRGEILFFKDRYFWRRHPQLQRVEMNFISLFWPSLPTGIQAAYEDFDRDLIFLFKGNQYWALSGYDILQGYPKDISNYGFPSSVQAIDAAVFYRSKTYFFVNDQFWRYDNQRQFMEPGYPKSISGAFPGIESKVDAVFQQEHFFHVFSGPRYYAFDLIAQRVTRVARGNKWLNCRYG
Sequence of MMP3 (P08254 100-477 limits assumed): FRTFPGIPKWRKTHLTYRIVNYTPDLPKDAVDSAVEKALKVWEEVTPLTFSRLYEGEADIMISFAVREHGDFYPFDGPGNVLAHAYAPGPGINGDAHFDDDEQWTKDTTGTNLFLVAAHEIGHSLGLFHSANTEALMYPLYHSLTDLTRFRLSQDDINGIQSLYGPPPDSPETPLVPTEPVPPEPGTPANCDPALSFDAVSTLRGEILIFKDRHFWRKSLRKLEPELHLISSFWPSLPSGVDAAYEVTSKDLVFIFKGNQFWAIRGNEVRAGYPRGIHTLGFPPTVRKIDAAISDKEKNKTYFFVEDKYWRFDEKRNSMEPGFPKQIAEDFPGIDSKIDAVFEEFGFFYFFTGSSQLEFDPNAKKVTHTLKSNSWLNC

B1: Variant A2M, bait region SEQ ID NO 84 (other)
chain: SVSGKPQYMVLVPSLLHTETTEKGCVLLSYLNETVTVSASLESVRGNRSLFTDLEAENDVLHCVAFAVPKSSSNEEVMFLTVQVKGPTQEFKKRTTVMVKNEDSLVFVQTDKSIYKPGQTVKFRVVSMDENFHPLNELIPLVYIQDPKGNRIAQWQSFQLEGGLKQFSFPLSSEPFQGSYKVVVQKKSGGRTEHPFTVEEFVLPKFEVQVTVPKIITILEEEMNVSVCGLYTYGKPVPGHVTVSICRKYSDASDCHGEDSQAFCEKFSGQLNSHGCFYQQVKTKVFQLKRKEYEMKLHTEAQIQEEGTVVELTGRQSSEITRTITKLSFVKVDSHFRQGIPFFGQVRLVDGKGVPIPNKVIFIRGNEANYYSNATTDEHGLVQFSINTTNVMGTSLTVRVNYKDRSPCYGYQWVSEEHEEAHHTAYLVFSPSKSFVHLEPMSHELPCGHTQTVQAHYILNGGTLLGLKKLSFYYLIMAKGGIVRTGTHGLLVKQEDMKGHFSISIPVKSDIAPVARLLIYAVLPTGDVIGDSAKYDVENCLANKVDLSFSPSQSLPASHAHLRVTAAPQSVCALRAVDQSVLLMKPDAELSASSVYNLLPEKDLTGFPGPLNDQDDEDCINRHNVYINGITYTPVSSTNEKDMYSFLEDMGLKAFTNSKIRKPKMCPQLEQYEMHGPEGLRVGKEEEGLGSIPENFFGVSELEGRGSKLRKYFPETWIWDLVVVNSAGVAEVGVTVPDTITEWKAGAFCLSEDAGLGISSTASLRAFQPFFVELTMPYSVIRGEAFTLKATVLNYLPKCIRVSVQLEASPAFLAVPVEKEQAPHCICANGRQTVSWAVTPKSLGNVNFTVSAEALESQELCGTEVPSVPEHGRKDTVIKPLLVEPEGLEKETTFNSLLCPSGGEVSEELSLKLPPNVVEESARASVSVLGDILGSAMQNTQNLLQMPYGCGEQNMVLFAPNIYVLDYLNETQQLTPEIKSKAIGYLNTGYQRQLNYKHYDGSYSTFGERYGRNQGNTWLTAFVLKTFAQARAYIFIDEAHITQALIWLSQRQKDNGCFRSSGSLLNNAIKGGVEDEVTLSAYITIALLEIPLTVTHPVVRNALFCLESAWKTAQEGDHGSHVYTKALLAYAFALAGNQDKRKEVLKSLNEEAVKKDNSVHWERPQKPKAPVGHFYEPQAPSAEVEMTSYVLLAYLTAQPAPTSEDLTSATNIVKWITKQQNAQGGFSSTQDTVVALHALSKYGAATFTRTGKAAQVTIQSSGTFSSKFQVDNNNRLLLQQVSLPELPGEYSMKVTGEGCVYLQTSLKYNILPEKEEFPFALGVQTLPQTCDEPKAHTSFQISLSVSYTGSRSASNMAIVDVKMVSGFIPLKPTVKMLERSNHVSRTEVSSNHVLIYLDKVSNQTLSLFFTVLQDVPVRDLKPAIVKVYDYYETDEFAIAEYNAPCSKDLGNADYKDDDDKGASHHHHHH
B1: the “Protease Inhibition (% of WT)” value with Elastase is 75 % of WT; in the experiment with bovine trypsin, 100 % of WT; in the experiment with chymotrypsin, 71 % of WT; with ADAMTS4, 70 % of WT; in the experiment with ADAMTS5, 250 % of WT; in the experiment with MMP1, 180 % of WT. Besides, the “Protease Inhibition (% of WT)” value with MMP8 was 350 % of WT; with MMP13 it was 720 % of WT; with MMP2, 120 % of WT; with MMP9, 60 % of WT; with MMP3, 170 % of WT; with MMP12, 100 % of WT.

B2: Variant A2M, bait region SEQ ID NO 130 (other)
chain: SVSGKPQYMVLVPSLLHTETTEKGCVLLSYLNETVTVSASLESVRGNRSLFTDLEAENDVLHCVAFAVPKSSSNEEVMFLTVQVKGPTQEFKKRTTVMVKNEDSLVFVQTDKSIYKPGQTVKFRVVSMDENFHPLNELIPLVYIQDPKGNRIAQWQSFQLEGGLKQFSFPLSSEPFQGSYKVVVQKKSGGRTEHPFTVEEFVLPKFEVQVTVPKIITILEEEMNVSVCGLYTYGKPVPGHVTVSICRKYSDASDCHGEDSQAFCEKFSGQLNSHGCFYQQVKTKVFQLKRKEYEMKLHTEAQIQEEGTVVELTGRQSSEITRTITKLSFVKVDSHFRQGIPFFGQVRLVDGKGVPIPNKVIFIRGNEANYYSNATTDEHGLVQFSINTTNVMGTSLTVRVNYKDRSPCYGYQWVSEEHEEAHHTAYLVFSPSKSFVHLEPMSHELPCGHTQTVQAHYILNGGTLLGLKKLSFYYLIMAKGGIVRTGTHGLLVKQEDMKGHFSISIPVKSDIAPVARLLIYAVLPTGDVIGDSAKYDVENCLANKVDLSFSPSQSLPASHAHLRVTAAPQSVCALRAVDQSVLLMKPDAELSASSVYNLLPEKDLTGFPGPLNDQDDEDCINRHNVYINGITYTPVSSTNEKDMYSFLEDMGLKAFTNSKIRKPKMCPQLEQYEMHGPSEDLVVQIEGEGEGEGIPENFFGVEAIPMSIPTVEEPHTKLRKYFPETWIWDLVVVNSAGVAEVGVTVPDTITEWKAGAFCLSEDAGLGISSTASLRAFQPFFVELTMPYSVIRGEAFTLKATVLNYLPKCIRVSVQLEASPAFLAVPVEKEQAPHCICANGRQTVSWAVTPKSLGNVNFTVSAEALESQELCGTEVPSVPEHGRKDTVIKPLLVEPEGLEKETTFNSLLCPSGGEVSEELSLKLPPNVVEESARASVSVLGDILGSAMQNTQNLLQMPYGCGEQNMVLFAPNIYVLDYLNETQQLTPEIKSKAIGYLNTGYQRQLNYKHYDGSYSTFGERYGRNQGNTWLTAFVLKTFAQARAYIFIDEAHITQALIWLSQRQKDNGCFRSSGSLLNNAIKGGVEDEVTLSAYITIALLEIPLTVTHPVVRNALFCLESAWKTAQEGDHGSHVYTKALLAYAFALAGNQDKRKEVLKSLNEEAVKKDNSVHWERPQKPKAPVGHFYEPQAPSAEVEMTSYVLLAYLTAQPAPTSEDLTSATNIVKWITKQQNAQGGFSSTQDTVVALHALSKYGAATFTRTGKAAQVTIQSSGTFSSKFQVDNNNRLLLQQVSLPELPGEYSMKVTGEGCVYLQTSLKYNILPEKEEFPFALGVQTLPQTCDEPKAHTSFQISLSVSYTGSRSASNMAIVDVKMVSGFIPLKPTVKMLERSNHVSRTEVSSNHVLIYLDKVSNQTLSLFFTVLQDVPVRDLKPAIVKVYDYYETDEFAIAEYNAPCSKDLGNADYKDDDDKGASHHHHHH
Consider B2, for which the “Protease Inhibition (% of WT)” value with Elastase is 103 % of WT; with Cathepsin G, 311 % of WT; in the experiment with bovine trypsin it was 250 % of WT; in the experiment with chymotrypsin, 100 % of WT; in the experiment with ADAMTS4, 110 % of WT; with ADAMTS5, 211 % of WT. In addition, the “Protease Inhibition (% of WT)” value in the experiment with MMP1 is 283 % of WT; with MMP8, 180 % of WT; with MMP13, 146 % of WT; with MMP2 it was 109 % of WT; in the experiment with MMP9, 100 % of WT; in the experiment with MMP12 it was 124 % of WT.

Source of the values: US20230250154A1 (CYTONICS, published 2023).
